Values quoted from earlier work in patent US8257684B2, “Methods for identifying and targeting autonomic brain regions” (Neurosigma, Inc., priority 2008, dated 2012).
No end group written: not given here.

Target: T1, OX1R (Homo sapiens, UniProt O43613)
T1 sequence (O43613 1-425): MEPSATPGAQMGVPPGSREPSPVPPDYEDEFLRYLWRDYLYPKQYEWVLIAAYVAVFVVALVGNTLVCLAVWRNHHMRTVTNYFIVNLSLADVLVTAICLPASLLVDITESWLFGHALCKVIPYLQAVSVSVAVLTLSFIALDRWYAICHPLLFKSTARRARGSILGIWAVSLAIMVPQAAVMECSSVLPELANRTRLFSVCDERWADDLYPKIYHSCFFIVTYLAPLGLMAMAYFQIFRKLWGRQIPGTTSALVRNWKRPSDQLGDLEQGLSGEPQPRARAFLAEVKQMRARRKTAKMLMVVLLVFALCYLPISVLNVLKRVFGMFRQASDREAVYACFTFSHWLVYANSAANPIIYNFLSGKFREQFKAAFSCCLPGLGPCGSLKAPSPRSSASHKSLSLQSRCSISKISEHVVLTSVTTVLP
Settings: ORXa versus ORXb; Lund et al., Journal of Biological Chemistry

higher affinity of OX1R for ORXa than for ORXb: approximately 10 fold
Substance: Orexin-A (QPLPDCCRQKTCSCRLYELLHGAGNHAAGILTL; not fully specified (residue 1, C-terminus, bridges); cysteine pairing not given here; UniProt O43612 34-66, looked up) [ORXa, ORX molecule produced in the LHA; agonist of OX1R]
